Starred links: 1 amine or outer side, 2 acyl side, 3 side chain; linkers in the order of their positions; H or OH if unused. Groups on a side chain read outwards from the residue. No end group written: not given here. *: point of attachment. C20 diacid = O=C(O)CCCCCCCCCCCCCCCCCCC(=O)*; C18 diacid = O=C(O)CCCCCCCCCCCCCCCCC(=O)*; γGlu = O=C(O)[C@H](CCC(=O)[*:2])N[*:1]; AEEA = NCCOCCOCC(=O)O
Tests used:
[1] = molecular target: T1, anti-target CRF1R receptor (UniProt P34998 24-415, limits assumed); assay: cell-based or functional assay
T1 sequence (looked up): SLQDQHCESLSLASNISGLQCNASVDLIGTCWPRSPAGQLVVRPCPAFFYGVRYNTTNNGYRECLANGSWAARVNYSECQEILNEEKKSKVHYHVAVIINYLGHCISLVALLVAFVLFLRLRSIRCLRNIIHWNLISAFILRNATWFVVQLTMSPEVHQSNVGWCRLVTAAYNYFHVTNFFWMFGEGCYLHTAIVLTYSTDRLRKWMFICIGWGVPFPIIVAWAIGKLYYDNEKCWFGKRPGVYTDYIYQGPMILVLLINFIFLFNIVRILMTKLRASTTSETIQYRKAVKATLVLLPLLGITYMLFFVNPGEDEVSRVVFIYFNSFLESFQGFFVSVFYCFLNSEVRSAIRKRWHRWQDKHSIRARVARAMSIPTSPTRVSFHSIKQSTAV

rat CRF2R α receptor = rat CRF2R α receptor (rat, UniProt P47866 20-411); assay: cell-based or functional assay
Sequence of rat CRF2R α receptor (P47866 20-411): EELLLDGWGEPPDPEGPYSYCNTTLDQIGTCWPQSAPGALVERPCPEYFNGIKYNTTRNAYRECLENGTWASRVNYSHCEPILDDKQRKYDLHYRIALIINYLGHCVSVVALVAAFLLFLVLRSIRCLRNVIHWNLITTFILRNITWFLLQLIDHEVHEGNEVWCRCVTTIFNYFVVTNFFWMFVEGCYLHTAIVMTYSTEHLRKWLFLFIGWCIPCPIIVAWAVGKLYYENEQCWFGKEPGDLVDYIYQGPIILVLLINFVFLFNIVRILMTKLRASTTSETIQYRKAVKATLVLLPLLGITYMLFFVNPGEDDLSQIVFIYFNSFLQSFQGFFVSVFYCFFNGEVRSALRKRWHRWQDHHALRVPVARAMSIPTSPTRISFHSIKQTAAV

Binder	EC50[nM] 0% HSA (cAMP, CRF1R-overexpression CHO cells) [1] [nM]	Emax (%) (cAMP, CRF1R-overexpression CHO cells) [1]	EC50 [nM], 0% HSA (cAMP, A7R5 cells) (rat CRF2R α receptor) [nM]
FTLSLDVPIKLK([AEEA-AEEA-γGlu-C18 diacid])QILLKQQKQKKERQQAETNVQLLERV-NH2 (N-terminus assumed; SMILES CC[C@H](C)[C@H](NC(=O)[C@H](CCC(N)=O)NC(=O)[C@H](CCCCNC(=O)COCCOCCNC(=O)COCCOCCNC(=O)CC[C@H](NC(=O)CCCCCCCCCCCCCCCCC(=O)O)C(=O)O)NC(=O)[C@H](CC(C)C)NC(=O)[C@H](CCCCN)NC(=O)[C@@H](NC(=O)[C@@H]1CCCN1C(=O)[C@@H](NC(=O)[C@H](CC(=O)O)NC(=O)[C@H](CC(C)C)NC(=O)[C@H](CO)NC(=O)[C@H](CC(C)C)NC(=O)[C@@H](NC(=O)[C@@H](N)Cc1ccccc1)[C@@H](C)O)C(C)C)[C@@H](C)CC)C(=O)N[C@@H](CC(C)C)C(=O)N[C@@H](CC(C)C)C(=O)N[C@@H](CCCCN)C(=O)N[C@@H](CCC(N)=O)C(=O)N[C@@H](CCC(N)=O)C(=O)N[C@@H](CCCCN)C(=O)N[C@@H](CCC(N)=O)C(=O)N[C@@H](CCCCN)C(=O)N[C@@H](CCCCN)C(=O)N[C@@H](CCC(=O)O)C(=O)N[C@@H](CCCNC(=N)N)C(=O)N[C@@H](CCC(N)=O)C(=O)N[C@@H](CCC(N)=O)C(=O)N[C@@H](C)C(=O)N[C@@H](CCC(=O)O)C(=O)N[C@H](C(=O)N[C@@H](CC(N)=O)C(=O)N[C@H](C(=O)N[C@@H](CCC(N)=O)C(=O)N[C@@H](CC(C)C)C(=O)N[C@@H](CC(C)C)C(=O)N[C@@H](CCC(=O)O)C(=O)N[C@@H](CCCNC(=N)N)C(=O)N[C@H](C(N)=O)C(C)C)C(C)C)[C@@H](C)O) [peptide of SEQ ID NO: 54]	> 1000	2.72	1.51
IVLSLDVPIKLK([AEEA-AEEA-γGlu-C18 diacid])QILLEQEKQKKQREQAETNKQILAQV-NH2 (N-terminus assumed; SMILES CC[C@H](C)[C@H](N)C(=O)N[C@H](C(=O)N[C@@H](CC(C)C)C(=O)N[C@@H](CO)C(=O)N[C@@H](CC(C)C)C(=O)N[C@@H](CC(=O)O)C(=O)N[C@H](C(=O)N1CCC[C@H]1C(=O)N[C@H](C(=O)N[C@@H](CCCCN)C(=O)N[C@@H](CC(C)C)C(=O)N[C@@H](CCCCNC(=O)COCCOCCNC(=O)COCCOCCNC(=O)CC[C@H](NC(=O)CCCCCCCCCCCCCCCCC(=O)O)C(=O)O)C(=O)N[C@@H](CCC(N)=O)C(=O)N[C@H](C(=O)N[C@@H](CC(C)C)C(=O)N[C@@H](CC(C)C)C(=O)N[C@@H](CCC(=O)O)C(=O)N[C@@H](CCC(N)=O)C(=O)N[C@@H](CCC(=O)O)C(=O)N[C@@H](CCCCN)C(=O)N[C@@H](CCC(N)=O)C(=O)N[C@@H](CCCCN)C(=O)N[C@@H](CCCCN)C(=O)N[C@@H](CCC(N)=O)C(=O)N[C@@H](CCCNC(=N)N)C(=O)N[C@@H](CCC(=O)O)C(=O)N[C@@H](CCC(N)=O)C(=O)N[C@@H](C)C(=O)N[C@@H](CCC(=O)O)C(=O)N[C@H](C(=O)N[C@@H](CC(N)=O)C(=O)N[C@@H](CCCCN)C(=O)N[C@@H](CCC(N)=O)C(=O)N[C@H](C(=O)N[C@@H](CC(C)C)C(=O)N[C@@H](C)C(=O)N[C@@H](CCC(N)=O)C(=O)N[C@H](C(N)=O)C(C)C)[C@@H](C)CC)[C@@H](C)O)[C@@H](C)CC)[C@@H](C)CC)C(C)C)C(C)C) [peptide of SEQ ID NO: 67]	> 1000	9.18	0.66
FTLSLDVPIKLK([AEEA-AEEA-γGlu-C20 diacid])QILLEQQKQKKERQQAETNVQLLERV-NH2 [peptide of SEQ ID NO: 63]	> 1000	4.68	4.73
FTLSLDVPTKIK([AEEA-AEEA-γGlu-C18 diacid])QILLKQQKQKKERQQAETNKQLLERV-NH2 (N-terminus assumed; SMILES CC[C@H](C)[C@H](NC(=O)[C@H](CCC(N)=O)NC(=O)[C@H](CCCCNC(=O)COCCOCCNC(=O)COCCOCCNC(=O)CC[C@H](NC(=O)CCCCCCCCCCCCCCCCC(=O)O)C(=O)O)NC(=O)[C@@H](NC(=O)[C@H](CCCCN)NC(=O)[C@@H](NC(=O)[C@@H]1CCCN1C(=O)[C@@H](NC(=O)[C@H](CC(=O)O)NC(=O)[C@H](CC(C)C)NC(=O)[C@H](CO)NC(=O)[C@H](CC(C)C)NC(=O)[C@@H](NC(=O)[C@@H](N)Cc1ccccc1)[C@@H](C)O)C(C)C)[C@@H](C)O)[C@@H](C)CC)C(=O)N[C@@H](CC(C)C)C(=O)N[C@@H](CC(C)C)C(=O)N[C@@H](CCCCN)C(=O)N[C@@H](CCC(N)=O)C(=O)N[C@@H](CCC(N)=O)C(=O)N[C@@H](CCCCN)C(=O)N[C@@H](CCC(N)=O)C(=O)N[C@@H](CCCCN)C(=O)N[C@@H](CCCCN)C(=O)N[C@@H](CCC(=O)O)C(=O)N[C@@H](CCCNC(=N)N)C(=O)N[C@@H](CCC(N)=O)C(=O)N[C@@H](CCC(N)=O)C(=O)N[C@@H](C)C(=O)N[C@@H](CCC(=O)O)C(=O)N[C@H](C(=O)N[C@@H](CC(N)=O)C(=O)N[C@@H](CCCCN)C(=O)N[C@@H](CCC(N)=O)C(=O)N[C@@H](CC(C)C)C(=O)N[C@@H](CC(C)C)C(=O)N[C@@H](CCC(=O)O)C(=O)N[C@@H](CCCNC(=N)N)C(=O)N[C@H](C(N)=O)C(C)C)[C@@H](C)O) [peptide of SEQ ID NO: 53]	> 1000	4.14	1.32
FTLSLDVPTKIK([AEEA-AEEA-γGlu-C18 diacid])QILLKQQKQKKERQQAEKNKQLLERV-NH2 (N-terminus assumed; SMILES CC[C@H](C)[C@H](NC(=O)[C@H](CCC(N)=O)NC(=O)[C@H](CCCCNC(=O)COCCOCCNC(=O)COCCOCCNC(=O)CC[C@H](NC(=O)CCCCCCCCCCCCCCCCC(=O)O)C(=O)O)NC(=O)[C@@H](NC(=O)[C@H](CCCCN)NC(=O)[C@@H](NC(=O)[C@@H]1CCCN1C(=O)[C@@H](NC(=O)[C@H](CC(=O)O)NC(=O)[C@H](CC(C)C)NC(=O)[C@H](CO)NC(=O)[C@H](CC(C)C)NC(=O)[C@@H](NC(=O)[C@@H](N)Cc1ccccc1)[C@@H](C)O)C(C)C)[C@@H](C)O)[C@@H](C)CC)C(=O)N[C@@H](CC(C)C)C(=O)N[C@@H](CC(C)C)C(=O)N[C@@H](CCCCN)C(=O)N[C@@H](CCC(N)=O)C(=O)N[C@@H](CCC(N)=O)C(=O)N[C@@H](CCCCN)C(=O)N[C@@H](CCC(N)=O)C(=O)N[C@@H](CCCCN)C(=O)N[C@@H](CCCCN)C(=O)N[C@@H](CCC(=O)O)C(=O)N[C@@H](CCCNC(=N)N)C(=O)N[C@@H](CCC(N)=O)C(=O)N[C@@H](CCC(N)=O)C(=O)N[C@@H](C)C(=O)N[C@@H](CCC(=O)O)C(=O)N[C@@H](CCCCN)C(=O)N[C@@H](CC(N)=O)C(=O)N[C@@H](CCCCN)C(=O)N[C@@H](CCC(N)=O)C(=O)N[C@@H](CC(C)C)C(=O)N[C@@H](CC(C)C)C(=O)N[C@@H](CCC(=O)O)C(=O)N[C@@H](CCCNC(=N)N)C(=O)N[C@H](C(N)=O)C(C)C) [peptide of SEQ ID NO: 52]	> 1000	5.3	0.76
FTLSLDVPTKIK([AEEA-AEEA-γGlu-C20 diacid])QILLKQQKQKKERQQAETNKQLLERV-NH2 [peptide of SEQ ID NO: 61]	> 1000	3.31	0.94
FTLSLDVPTKIK([AEEA-AEEA-γGlu-C20 diacid])QILLKQQKQKKERQQAEKNKQLLERV-NH2 [peptide of SEQ ID NO: 60]	> 1000	4.84	1.35
FTLSLDVPTKIK([AEEA-AEEA-γGlu-C20 diacid])QILFKQQKQKKERQQAEKNKQLLEQI-NH2 [peptide of SEQ ID NO: 58]	> 1000	9.12	0.72
FTLSLDVPIKLK([AEEA-AEEA-γGlu-C20 diacid])QILLKQQKQKKERQQAETNVQLLERV-NH2 [peptide of SEQ ID NO: 62]	> 1000	2.28	2.9

— patent US12679878B2, “CRF2 receptor agonists and their use in therapy” (SANOFI, priority 2020, dated 2026)
